Experimental data reported in article PMC7605441.

What was measured:
RAD51 [1] = biological target: RAD51 (UniProt Q08297); assay: co-IP of RAD51-GFP, RAD51AP1-mCherry blotted; settings: reference: wild type, asynchronous cells; sites T305
RAD51 [2] = biological target: RAD51 (UniProt Q08297); assay: co-IP of RAD51AP1-mCherry, RAD51-GFP blotted; settings: reference: wild type, asynchronous cells; sites T305

In the case of RAD51AP1 (from UniProt Q8C551) T305A, the other: percent reduction vs wild type (RAD51 [1]) is reported as 62% and the other: percent reduction vs wild type (RAD51 [2]) is reported as 90%.
